According to patent publication US20180201910:

Assays:
[1] = target: T1, ferredoxin encoded by FD gene 1 (Fd5), YP_001864105, Nostoc punctiforme PCC 73102
T1 chain: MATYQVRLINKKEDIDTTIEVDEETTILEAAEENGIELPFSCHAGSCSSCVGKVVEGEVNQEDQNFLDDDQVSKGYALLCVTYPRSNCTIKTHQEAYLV

[2] = target: T2, ferredoxin encoded by FD gene 2 (Fd6), YP_001864826, Nostoc punctiforme PCC 73102
T2 chain: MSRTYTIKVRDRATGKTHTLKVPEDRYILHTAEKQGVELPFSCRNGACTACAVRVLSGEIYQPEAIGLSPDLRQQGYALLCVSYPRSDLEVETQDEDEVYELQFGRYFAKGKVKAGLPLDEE

[3] = target: T3, ferredoxin encoded by FD gene 3 (Fd7), YP_001865513, Nostoc punctiforme PCC 73102
T3 chain: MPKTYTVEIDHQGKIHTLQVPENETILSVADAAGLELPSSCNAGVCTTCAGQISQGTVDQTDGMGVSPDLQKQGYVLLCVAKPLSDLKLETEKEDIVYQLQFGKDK

[4] = target: ferredoxin encoded by FD gene 4 (Fd8), YP_001867060, Nostoc punctiforme PCC 73102
ferredoxin encoded by FD gene 4 (Fd8), YP_001867060, Nostoc punctiforme PCC 73102, sequence (chain, as listed by the source): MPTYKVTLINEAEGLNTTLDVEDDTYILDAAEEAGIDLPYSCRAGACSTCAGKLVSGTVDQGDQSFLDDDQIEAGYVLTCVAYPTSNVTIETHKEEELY

[5] = target: T4, ferredoxin encoded by FD gene 5 (Fd4), YP_001864061, Nostoc punctiforme PCC 73102
T4 chain: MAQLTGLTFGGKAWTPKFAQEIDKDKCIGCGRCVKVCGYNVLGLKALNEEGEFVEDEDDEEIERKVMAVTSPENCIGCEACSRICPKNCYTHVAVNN

B1: ferredoxin reductase encoded by FDR gene 1 (FDR1), YP_001865390, Nostoc punctiforme PCC 73102 (protein)
chain: MNSPVYQTVIVGGGFTGLFTALHLAHEHYPRSVILIDKDERFCFKPLLYEYFDGEMDTFQVVPRFSELLKGSGVIFVQDTVQSINLHQREVKLASGNSYNYSNLVLALGSVTGYHQVEGARENAFPFWTQADAIALDRHLRDCLQKAVQTEDVEQRRKLLTVVIVGGGASGVEMAATLADFLPHWYSALGGNSSEIRVVLLNHGKEILDGDINNPLREIAERELNKRAVPIEMIVEAEATAIGSTSIQYKRNEQIETLATHTTVWTAGTSTHPLIKDLPIPKEHRDRRDRPLVTPNLQLLDFPEVFVGGDCAAVQDNSLPPTAQVAYQQGANIAQNLKALALGEEPKPAKVNIRGTLLKLGINDAAANLFNVFEVVGETAHLIRQGTYLTLLPAPIHDFKATTEWVDEEVFHQHLDPHDVGKKVVQAAEIVGVGVVGILAARKLLKMLGDEDKNSK
- amount of alkane production 3 days after the initiation of culture compared with the amount of Strain No. 2 (E. coli Rosetta co-expressing decarbonylase and acyl-ACP reductase, GC/MS) [1]: 2.5 times
- amount of alkane production 3 days after the initiation of culture compared with the amount of Strain No. 2 (E. coli Rosetta co-expressing decarbonylase and acyl-ACP reductase, GC/MS) [2]: 2.4 times
- amount of alkane production 3 days after the initiation of culture compared with the amount of Strain No. 2 (E. coli Rosetta co-expressing decarbonylase and acyl-ACP reductase, GC/MS) [3]: x
- amount of alkane production 3 days after the initiation of culture compared with the amount of Strain No. 2 (E. coli Rosetta co-expressing decarbonylase and acyl-ACP reductase, GC/MS) [4]: 2.6 times
- amount of alkane production 3 days after the initiation of culture compared with the amount of Strain No. 2 (E. coli Rosetta co-expressing decarbonylase and acyl-ACP reductase, GC/MS) [5]: x

B2: ferredoxin reductase encoded by FDR gene 2 (FDR2), YP_001866231, Nostoc punctiforme PCC 73102 (protein)
chain: MYNQGAVEGAANIELGSRIFVYEVVGLRQGEETDQTNYPIRKSGSVFIRVPYNRMNQEMRRITRLGGTIVSIQPITALEPVNGKASFGNATSVVSELAKSGETANSEGNGKATPVNAHSAEEQNKDKKGNTMTQAKAKKDHGDVPVNTYRPNAPFIGKVISNEPLVKEGGIGIVQHLKFDLSGGDLKYIEGQSIGIIPPGLDKNGKPEKLRLYSIASTRHGDDVDDKTVSLCVRQLEYKHPETGETVYGVCSTHLCFLKPGEEVKITGPVGKEMLLPNDPDANVIMMATGTGIAPMRAYLWRQFKDAERAANPEYQFKGFSWLIFGVPTTPNLLYKEELEEIQQKYPENFRLTAAISREQKNPQGGRMYIQDRVAEHADELWQLIKNEKTHTYICGLRGMEEGIDAALTAAAAKEGVTWSDYQKQLKKAGRWHVETY
- amount of alkane production 3 days after the initiation of culture compared with the amount of Strain No. 2 (E. coli Rosetta co-expressing decarbonylase and acyl-ACP reductase, GC/MS) [1]: 1.9 times
- amount of alkane production 3 days after the initiation of culture compared with the amount of Strain No. 2 (E. coli Rosetta co-expressing decarbonylase and acyl-ACP reductase, GC/MS) [2]: 2.5 times
- amount of alkane production 3 days after the initiation of culture compared with the amount of Strain No. 2 (E. coli Rosetta co-expressing decarbonylase and acyl-ACP reductase, GC/MS) [3]: 3.8 times
- effects of improving the alkane productivity in the E. coli JM109 strain [3]: two times greater in the E. coli JM109 strain
- effects of improving the alkane productivity in the Klebsiella sp. 100048 strain [3]: 4 times greater than the effects in the Klebsiella sp. 100048 strain
- amount of alkane production 3 days after the initiation of culture compared with the amount of Strain No. 2 (E. coli Rosetta co-expressing decarbonylase and acyl-ACP reductase, GC/MS) [4]: 3.0 times
- amount of alkane production 3 days after the initiation of culture compared with the amount of Strain No. 2 (E. coli Rosetta co-expressing decarbonylase and acyl-ACP reductase, GC/MS) [5]: x

B3: ferredoxin reductase encoded by FDR gene 3 (FDR3), YP_001868825, Nostoc punctiforme PCC 73102 (protein)
chain: MSFTSMPSLREQQHPLIRQLADCIEAAWHQHLDLSPYHLPDELGYVEGRLEGEKLTIENRCYQTPQFRKMHLELANIGNMLDILHCVMFPRPQYNLPMFGCDLVGGRGQISAAIADLSPIQLERTLPESYTTALAQLPVLNFSQPRELPEWGNIFSDFCIFVRPGSPEEEAMFLSRVREFLDIHCMQAIASHPVSVEQVTQNLAGQHNYCTKQQQNDKTRRVLEKAFGPVWAENYMTTVLFDLPT
- amount of alkane production 3 days after the initiation of culture compared with the amount of Strain No. 2 (E. coli Rosetta co-expressing decarbonylase and acyl-ACP reductase, GC/MS) [1]: x
- amount of alkane production 3 days after the initiation of culture compared with the amount of Strain No. 2 (E. coli Rosetta co-expressing decarbonylase and acyl-ACP reductase, GC/MS) [2]: 3.4 times
- amount of alkane production 3 days after the initiation of culture compared with the amount of Strain No. 2 (E. coli Rosetta co-expressing decarbonylase and acyl-ACP reductase, GC/MS) [3]: 2.0 times
- amount of alkane production 3 days after the initiation of culture compared with the amount of Strain No. 2 (E. coli Rosetta co-expressing decarbonylase and acyl-ACP reductase, GC/MS) [4]: x
- amount of alkane production 3 days after the initiation of culture compared with the amount of Strain No. 2 (E. coli Rosetta co-expressing decarbonylase and acyl-ACP reductase, GC/MS) [5]: x
